Measured values: paper PMC3206016, “Putting into Practice Domain-Linear Motif Interaction Predictions for Exploration of Protein Networks” (PLoS ONE, 2011)
Ends that are not written are not given here. * marks the point of attachment. Biotin = O=C1N[C@H]2[C@H](CS[C@H]2CCCCC(=O)*)N1

B12: SCRIB-3/4 (MBP fusion of the third of the four PDZ domains of SCRIB) (domain or fragment)
chain: EGPYPVEEIRLPRAGGPLGLSIVGGSDHSSHPFGVQEPGVFISKVLPRGLAARSGLRVGDRILAVNGQDVRDATHQEAVSALLRPCLELSLLVRRDP
notes: also called MBP-PDZ analyte SCRIB-3/4; source: E. coli BL21 DE3, purified (amylose column, Superdex 75 gel filtration)
B14: SCRIB-34/4 (MBP fusion of the tandem of the third and fourth PDZ domains of SCRIB) (domain or fragment)
chain: EGPYPVEEIRLPRAGGPLGLSIVGGSDHSSHPFGVQEPGVFISKVLPRGLAARSGLRVGDRILAVNGQDVRDATHQEAVSALLRPCLELSLLVRRDPAPPGLRELCIQKAPGERLGISIRGGARGHAGNPRDPTDEGIFISKVSPTGAAGRDGRLRVGLRLLEVNQQSLLGLTHGEAVQLLRSVGDTLTVLVCDGFE
notes: also called MBP-PDZ analyte SCRIB-34/4; tandem PDZ construct; source: E. coli BL21 DE3, purified (amylose column, Superdex 75 gel filtration)
B25: MAGI1-3/6 (MBP fusion of the third of the six PDZ domains of MAGI1) (domain or fragment)
chain: SHGYPNDTVSLASSIATQPELITVHIVKGPMGFGFTIADSPGGGGQRVKQIVDSPRCRGLKEGDLIVEVNKKNVQALTHNQVVDMLIECPKGSEVTLLVQRGGLPVPKKSPKSQPLERKDSQNSSQHSVSSHRSLHTASP
notes: source: E. coli BL21 DE3, purified (amylose column, Superdex 75 gel filtration)
B34: MAGI1-2/6 (MBP fusion of the second of the six PDZ domains of MAGI1) (domain or fragment)
chain: KPFFTRNPSELKGKFIHTKLRKSSRGFGFTVVGGDEPDEFLQIKSLVLDGPAALDGKMETGDVIVSVNDTCVLGHTHAQVVKIFQSIPIGASVDLELCRGYPLPFDPDDPNTSLVTSVAILDKEP
notes: as for B25

What was measured:
Assay in all cases: SPR
Settings in all cases: both partners purified
[1] = biological target: B25
[2] = biological target: B12
[3] = biological target: B14
[4] = biological target: B25; remark: listed apart in the source
[5] = biological target: B12; remark: listed apart in the source
[6] = biological target: B14; remark: listed apart in the source
[7] = biological target: B34
[8] = biological target: B12; remark: listed apart in the source
[9] = biological target: B14; remark: listed apart in the source
[10] = biological target: B34; remark: listed apart in the source
[11] = biological target: B25; remark: listed apart in the source
[12] = biological target: B12; remark: listed apart in the source
[13] = biological target: B14; remark: listed apart in the source
[14] = biological target: B25; remark: listed apart in the source
[15] = biological target: T1, 16E6_05 (short peptide of HPV16 early protein E6: GSGAG and the last five residues) (human papilloma virus 16, biotin at N-terminus)
T1 construct: also called 16E6 short; source: synthetic peptide (JPT Peptide Technologies)

[16] = biological target: T2, TAX1_05 (short peptide of the Trans-activating transcriptional regulatory protein of HTLV-1: GSGAG a (HTLV-1A, biotin at N-terminus))
T2 construct: source: synthetic peptide (JPT Peptide Technologies)

[17] = biological target: B34; remark: listed apart in the source

B1: TANC1_05 (short peptide of Tetratricopeptide repeat, ankyrin repeat and coiled-coil domain-containing protein 1: GSGAG and the last five residues) (peptide)
peptide: Biotin-GSGAGIESNV
notes: also called TANC1 short; source: synthetic peptide (JPT Peptide Technologies)
- Kd [1]: 14 µM
- Kd [2]: 498 µM
- Kd [3]: 9 µM

B2: MAS_10 (long peptide of Proto-oncogene Mas: the last ten residues) (peptide)
peptide: Biotin-CNTVTVETVV
notes: also called MAS long; source: synthetic peptide (JPT Peptide Technologies)
- Kd [4]: 123 µM
- Kd [5]: 73 µM
- Kd [6]: 3 µM

B3: MARCH3_05 (short peptide of E3 ubiquitin-protein ligase MARCH3: GSGAG and the last five residues) (peptide)
peptide: Biotin-GSGAGKETVV
notes: also called MARCH3 short; source: synthetic peptide (JPT Peptide Technologies)
- Kd [7]: 225 µM
- Kd [8]: 46 µM
- Kd [9]: 7 µM

B4: DLL1_05 (short peptide of Delta-like protein 1: GSGAG and the last five residues) (peptide)
peptide: Biotin-GSGAGIATEV
notes: also called DLL1 short; source: synthetic peptide (JPT Peptide Technologies)
- Kd [10]: 32 µM
- Kd [11]: 246 µM
- Kd [12]: 200 µM

B5: ABC1_05 (short peptide of ATP-binding cassette sub-family A member 1: GSGAG and the last five residues) (peptide)
peptide: Biotin-GSGAGKESYV
notes: also called ABC1 short; source: synthetic peptide (JPT Peptide Technologies)
- Kd [10]: 91 µM
- Kd [11]: 26 µM
- Kd [12]: 229 µM
- Kd [13]: 10 µM

B6: VANG2_10 (long peptide of Vang-like protein 2: the last ten residues) (peptide)
peptide: Biotin-VMRLQSETSV
notes: also called VANG2 long; source: synthetic peptide (JPT Peptide Technologies)
- Kd [8]: 12 µM
- Kd [9]: 5 µM

B7: DLL1_10 (long peptide of Delta-like protein 1: the last ten residues) (peptide)
peptide: Biotin-KDECVIATEV
notes: also called DLL1 long; source: synthetic peptide (JPT Peptide Technologies)
- Kd [11]: 238 µM
- Kd [12]: 172 µM

B8: ATP1A1_05 (short peptide of Sodium/potassium-transporting ATPase subunit alpha-1: GSGAG and the last five residues) (peptide)
peptide: Biotin-GSGAGKETYY
notes: also called ATP1A1 short; source: synthetic peptide (JPT Peptide Technologies)
- Kd [5]: 1280 µM

B9: MAS_05 (short peptide of Proto-oncogene Mas: GSGAG and the last five residues) (peptide)
peptide: Biotin-GSGAGVETVV
notes: also called MAS short; source: synthetic peptide (JPT Peptide Technologies)
- Kd [7]: 2740 µM
- Kd [14]: 90 µM
- Kd [8]: 158 µM
- Kd [9]: 16 µM

B10: TMEM215_05 (short peptide of Transmembrane protein 215: GSGAG and the last five residues) (peptide)
peptide: Biotin-GSGAGHETIV
notes: also called TMEM215 short; source: synthetic peptide (JPT Peptide Technologies)
- Kd [14]: 116 µM
- Kd [8]: 213 µM
- Kd [9]: 15 µM

B11: NET1_05 (short peptide of Neuroepithelial cell-transforming gene 1 protein: GSGAG and the last five residues) (peptide)
peptide: Biotin-GSGAGKETLV
notes: also called NET1 short; source: synthetic peptide (JPT Peptide Technologies)
- Kd [10]: 62 µM
- Kd [11]: 23 µM
- Kd [12]: 308 µM
- Kd [13]: 15 µM

Binder: B12
- Kd [15]: 12 µM
- Kd [16]: 96 µM

B13: CYSLTR2_05 (short peptide of Cysteinyl leukotriene receptor 2: GSGAG and the last five residues) (peptide)
peptide: Biotin-GSGAGKETRV
notes: also called CYSLTR2 short; source: synthetic peptide (JPT Peptide Technologies)
- Kd [17]: 30 µM
- Kd [4]: 21 µM
- Kd [5]: 103 µM
- Kd [6]: 10 µM

Binder: B14
- Kd [15]: 1 µM
- Kd [16]: 1 µM

B15: PTEN_10 (long peptide of PTEN: the last ten residues) (peptide)
peptide: Biotin-EDQHTQITKV
notes: also called PTEN long; source: synthetic peptide (JPT Peptide Technologies)
- Kd [1]: 144 µM

B16: ADAM17_10 (long peptide of Disintegrin and metalloproteinase domain-containing protein 17: the last ten residues) (peptide)
peptide: Biotin-NRVDSKETEC
notes: also called ADAM17 long; source: synthetic peptide (JPT Peptide Technologies)
- Kd [8]: 97 µM
- Kd [5]: 79 µM
- Kd [6]: 8 µM

B17: ARHGAP6_05 (short peptide of Rho GTPase-activating protein 6: GSGAG and the last five residues) (peptide)
peptide: Biotin-GSGAGPETLV
notes: also called ARHGAP6 short; source: synthetic peptide (JPT Peptide Technologies)
- Kd [10]: 2000 µM
- Kd [11]: 58 µM
- Kd [12]: 216 µM
- Kd [13]: 31 µM

B18: MARCH3_10 (long peptide of E3 ubiquitin-protein ligase MARCH3: the last ten residues) (peptide)
peptide: Biotin-VKRNSKETVV
notes: also called MARCH3 long; source: synthetic peptide (JPT Peptide Technologies)
- Kd [7]: 103 µM
- Kd [14]: 686 µM
- Kd [8]: 100 µM
- Kd [9]: 16 µM

B19: ATP1A1_10 (long peptide of Sodium/potassium-transporting ATPase subunit alpha-1: the last ten residues) (peptide)
peptide: Biotin-GGWVEKETYY
notes: also called ATP1A1 long; source: synthetic peptide (JPT Peptide Technologies)
- Kd [5]: 88 µM

B20: CYSLTR2_10 (long peptide of Cysteinyl leukotriene receptor 2: the last ten residues) (peptide)
peptide: Biotin-SVWLRKETRV
notes: also called CYSLTR2 long; source: synthetic peptide (JPT Peptide Technologies)
- Kd [17]: 4 µM
- Kd [5]: 34 µM
- Kd [6]: 15 µM

B21: TTC24_05 (short peptide of Tetratricopeptide repeat protein 24: GSGAG and the last five residues) (peptide)
peptide: Biotin-GSGAGICTIV
notes: also called TTC24 short; source: synthetic peptide (JPT Peptide Technologies)
- Kd [17]: 65 µM
- Kd [4]: 34 µM
- Kd [5]: 239 µM
- Kd [6]: 25 µM

B22: GLAST_05 (short peptide of Excitatory amino acid transporter 1: GSGAG and the last five residues) (peptide)
peptide: Biotin-GSGAGSETKM
notes: also called GLAST short; source: synthetic peptide (JPT Peptide Technologies)
- Kd [5]: 182 µM
- Kd [6]: 179 µM

B23: TMEM215_10 (long peptide of Transmembrane protein 215: the last ten residues) (peptide)
peptide: Biotin-QGRWDHETIV
notes: also called TMEM215 long; source: synthetic peptide (JPT Peptide Technologies)
- Kd [14]: 67 µM
- Kd [8]: 128 µM
- Kd [9]: 9 µM

B24: NET1_10 (long peptide of Neuroepithelial cell-transforming gene 1 protein: the last ten residues) (peptide)
peptide: Biotin-SGGKRKETLV
notes: also called NET1 long; source: synthetic peptide (JPT Peptide Technologies)
- Kd [10]: 3 µM
- Kd [11]: 37 µM
- Kd [12]: 217 µM
- Kd [13]: 63 µM

Binder: B25
- Kd [16]: 75 µM

B26: ARHGAP6_10 (long peptide of Rho GTPase-activating protein 6: the last ten residues) (peptide)
peptide: Biotin-NPDALPETLV
notes: also called ARHGAP6 long; source: synthetic peptide (JPT Peptide Technologies)
- Kd [10]: 18 µM
- Kd [11]: 41 µM
- Kd [12]: 541 µM
- Kd [13]: 28 µM

B27: FZD4_05 (short peptide of Frizzled-4: GSGAG and the last five residues) (peptide)
peptide: Biotin-GSGAGSETVV
notes: also called FZD4 short; source: synthetic peptide (JPT Peptide Technologies)
- Kd [7]: 146 µM

B28: GLUT7_10 (long peptide of Solute carrier family 2, facilitated glucose transporter member 7: the last ten residues) (peptide)
peptide: Biotin-TASPAKETSF
notes: also called GLUT7 long; source: synthetic peptide (JPT Peptide Technologies)
- Kd [2]: 45 µM
- Kd [3]: 5 µM

B29: VANG2_05 (short peptide of Vang-like protein 2: GSGAG and the last five residues) (peptide)
peptide: Biotin-GSGAGSETSV
notes: also called VANG2 short; source: synthetic peptide (JPT Peptide Technologies)
- Kd [8]: 24 µM
- Kd [9]: 4 µM

B30: SCRIB-4/4 (MBP fusion of the fourth of the four PDZ domains of SCRIB) (domain or fragment)
chain: GLRELCIQKAPGERLGISIRGGARGHAGNPRDPTDEGIFISKVSPTGAAGRDGRLRVGLRLLEVNQQSLLGLTHGEAVQLLRSVGDTLTVLVCDGFE
notes: also called MBP-PDZ analyte SCRIB-4/4; source: E. coli BL21 DE3, purified (amylose column, Superdex 75 gel filtration)
- Kd [16]: 50 µM

B31: PTEN_05 (short peptide of PTEN: GSGAG and the last five residues) (peptide)
peptide: Biotin-GSGAGQITKV
notes: also called PTEN short; source: synthetic peptide (JPT Peptide Technologies)
- Kd [1]: 453 µM

B32: ABC1_10 (long peptide of ATP-binding cassette sub-family A member 1: the last ten residues) (peptide)
peptide: Biotin-QDEKVKESYV
notes: also called ABC1 long; source: synthetic peptide (JPT Peptide Technologies)
- Kd [10]: 45 µM
- Kd [11]: 20 µM
- Kd [12]: 107 µM
- Kd [13]: 8 µM

B33: FZD4_10 (long peptide of Frizzled-4: the last ten residues) (peptide)
peptide: Biotin-KPGKGSETVV
notes: also called FZD4 long; source: synthetic peptide (JPT Peptide Technologies)
- Kd [17]: 23 µM

Binder: B34
- Kd [15]: 7 µM
- Kd [16]: 33 µM

B35: GLUT7_05 (short peptide of Solute carrier family 2, facilitated glucose transporter member 7: GSGAG and the last five residues) (peptide)
peptide: Biotin-GSGAGKETSF
notes: also called GLUT7 short; source: synthetic peptide (JPT Peptide Technologies)
- Kd [2]: 56 µM
- Kd [3]: 5 µM
